# Measured values reported in publication PMC8533110.
# Experiments:
# Assay in all cases: EMSA
# Conditions in all cases: EMSA: 10 mM Tris-HCl pH 8.0, 60 mM NaCl, 10 mM KCl, 5 mM MgCl2, 1 mM DTT, 0.05% NP40, 10% glycerol, footprint: 5 mM Tris-HCl pH 8.0, 60 mM NaCl, 5 mM KCl
# [1] = biological target: T1, HspR (Campylobacter jejuni NCTC 11168) (UniProt Q0P926)
# T1 sequence: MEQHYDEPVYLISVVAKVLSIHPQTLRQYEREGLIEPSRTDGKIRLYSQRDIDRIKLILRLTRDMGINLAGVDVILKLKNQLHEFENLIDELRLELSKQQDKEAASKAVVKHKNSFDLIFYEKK
# [2] = biological target: T2, HrcA;HspR (Campylobacter jejuni NCTC 11168;Campylobacter jejuni NCTC 11168) (UniProt Q9PPG2+Q0P926)
# T2 sequence 1: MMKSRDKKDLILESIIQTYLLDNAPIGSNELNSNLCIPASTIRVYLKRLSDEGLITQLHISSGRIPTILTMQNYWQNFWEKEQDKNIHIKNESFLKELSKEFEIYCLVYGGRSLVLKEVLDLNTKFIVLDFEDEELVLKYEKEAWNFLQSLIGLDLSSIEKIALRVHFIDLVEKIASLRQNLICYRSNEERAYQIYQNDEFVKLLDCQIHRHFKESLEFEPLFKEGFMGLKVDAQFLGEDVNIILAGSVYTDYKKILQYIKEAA
# T2 sequence 2: T1 sequence
# [3] = biological target: T3, HrcA (Campylobacter jejuni NCTC 11168) (UniProt Q9PPG2)
# T3 sequence: T2 sequence 1
Sequence,binding [1],binding [2],binding [3]
GGATCCCTTGCAGCAAATAAAGCACTTGCTAAACTTAATGATAAAAAAATCTTTTTCATTTCATTTCCTTTTGTTCTTAAAGATAAATTATCTCGTAAAATATTTTACTGTCTTCATAGTATAAAACCGAAAATTTACAAAATTGTAAATAAAACCTTGAGTGATAAAAATTTATAAAACTTGATTGACTTAGGCTAAAGTTTATGTTATAATTTAATCCTCTATATAATCAAGTAAAAATTTTTAAGGAAATATAACATGAATAGTTTATACGAAACTCTTGGAGTTAGCCTCGAG (double strand) [Pcbp promoter probe (EMSA)],binds,,
GGATCCGCACAACAACAAAAGCTACAATGCCATAAAAAATCTTTTTCATTTTTATCCTTTAGTTTATTTTATAAAATAACTTTAGTCTATAAAACTAAACTTTTATAAATATTTTAATTTAAAGTATTGACAAAATTCATTTTTTATAGTATGATATTATCACTCTAAATTAAAGAGTGCTAAAATCAATATTTTTAAGGATGGACAAAAATGAATTTTCAACCTTTAGGAAAGCGTGTTCTAGTTAAACGCGCTCGAG (double strand) [Pgro promoter probe (EMSA)],binds,binds,binds
